15 molecules from US20240116985A1, “STAPLED PEPTIDES AND METHODS THEREOF” (priority 2020, published 2024) can be followed below.

Starred links: 1 amine or outer side, 2 acyl side, 3 side chain; linkers in the order of their positions; H or OH if unused. Positions of bridges follow the written chain, without caps; N, C: chain ends. Non-standard residues stand in square brackets, D forms with d. Primed or numbered codes have the meaning given here. PyrS2″ = (S)-3-amino-1-((pent-4-en-1-yloxy)carbonyl)pyrrolidine-3-carboxylic acid (stapling residue), C=CCCCOC(=O)N1CC[C@@](N[*:1])(C(=O)[*:2])C1; (bismethoxyethylamine)GlnR = [bismethoxyethylamine]GlnR, N5,N5-bis(2-methoxyethyl)-L-glutamine, COCCN(CCOC)C(=O)CC[C@H](N[*:1])C(=O)[*:2]; B5(4) = 2,2-bis(4-pentenyl)glycine = 2-amino-2-(pent-4-en-1-yl)hept-6-enoic acid (stitching residue), C=CCCCC(CCCC=C)(N[*:1])C(=O)[*:2]; B5(5) = 2,2-bis(4-pentenyl)glycine, 2-amino-2-(pent-4-en-1-yl)hept-6-enoic acid (stitching residue), C=CCCCC(CCCC=C)(N[*:1])C(=O)[*:2]; 5F3Me3COOHF = (S)-3-(2-amino-2-carboxyethyl)-5-(trifluoromethyl)benzoic acid, O=C([C@H](Cc1cc(C(=O)[*:3])cc(C(F)(F)F)c1)N[*:1])[*:2]; TfeGA = (S)-2-amino-3-((carboxymethyl)(2,2,2-trifluoroethyl)amino)propanoic acid, O=C([C@H](CN(CC(=O)[*:3])CC(F)(F)F)N[*:1])[*:2]; PyrS2 = (S)-3-amino-1-((pent-4-en-1-yloxy)carbonyl)pyrrolidine-3-carboxylic acid, C=CCCCOC(=O)N1CC[C@@](N[*:1])(C(=O)[*:2])C1; 4F3COOHF = (S)-5-(2-amino-2-carboxyethyl)-2-fluorobenzoic acid, O=C([C@H](Cc1ccc(F)c(C(=O)[*:3])c1)N[*:1])[*:2]; B5(25) = 2-amino-2-(pent-4-en-1-yl)hept-6-enoic acid (stitching residue), C=CCCCC(CCCC=C)(N[*:1])C(=O)[*:2]; B5(3) = 2,2-bis(4-pentenyl)glycine (stitching residue), C=CCCCC(CCCC=C)(N[*:1])C(=O)[*:2]; B5 = 2-amino-2-(pent-4-en-1-yl)hept-6-enoic acid, C=CCCCC(CCCC=C)(N[*:1])C(=O)[*:2]; PyrR = (R)-1-((allyloxy)carbonyl)-3-aminopyrrolidine-3-carboxylic acid; Phe(3-COOH) = N[C@@H](Cc1cccc(C(=O)O)c1)C(=O)O; 2F3MeF = Cc1cccc(C[C@H](N[*:1])C(=O)[*:2])c1F; Phe(2-CF3) = N[C@@H](Cc1ccccc1C(F)(F)F)C(=O)O; Phe(4-Cl) = N[C@@H](Cc1ccc(Cl)cc1)C(=O)O; Phe(2-Cl) = N[C@@H](Cc1ccccc1Cl)C(=O)O; dαMeGly(allyl) = C=CC[C@@](C)(N)C(=O)O; Bta = N[C@@H](Cc1csc2ccccc12)C(=O)O; αAllylPro = C=CC[C@@]1(C(=O)O)CCCN1; tBuAla = CC(C)(C)C[C@H](N)C(=O)O; 3Thi = N[C@@H](Cc1ccsc1)C(=O)O; R5 = C=CCCC[C@@](C)(N)C(=O)O; 34ClF = not defined here; Nle = CCCC[C@H](N)C(=O)O; Abu = CC[C@H](N)C(=O)O; Aib = CC(C)(N)C(=O)O

B1: I-1695 (peptide)
peptide: Ac-[αAllylPro]D[tBuAla][B5]D[TfeGA][Nle]GFT[PyrS2][Phe(2-Cl)][Bta]Q-NH2
modifications: staple 1-4, 4-11
B2: I-1696 (peptide)
peptide: Ac-[αAllylPro]D[tBuAla][B5]D[TfeGA][Aib]GFT[PyrS2][Phe(2-Cl)][Bta]Q-NH2
modifications: staple 1-4, 4-11
B3: I-2211 (peptide)
peptide: Ac-[αAllylPro]D[tBuAla][B5(5)]D[5F3Me3COOHF]QAFL[PyrS2][3Thi][Bta]A-NH2
modifications: staple 1-4, 4-11
B4: I-2218 (peptide)
peptide: Ac-[αAllylPro]D[tBuAla][B5(3)]D[Phe(3-COOH)]AAFL[PyrS2″][2F3MeF][34ClF]S-NH2
modifications: staple 1-4, 4-11; reading uncertain
B5: I-2206 (peptide)
peptide: Ac-[αAllylPro]D[tBuAla][B5(5)]D[4F3COOHF]QAFL[PyrS2][3Thi][Bta]A-NH2
modifications: staple 1-4, 4-11
B6: I-2220 (peptide)
peptide: Ac-[αAllylPro]D[tBuAla][B5(3)]D[Phe(3-COOH)]AAFL[PyrS2″][3Thi][Phe(4-Cl)]Q-NH2
modifications: staple 1-4, 4-11
B7: I-2219 (peptide)
peptide: Ac-[αAllylPro]D[tBuAla][B5(3)]D[Phe(3-COOH)]QAFL[PyrS2″][2F3MeF][34ClF]A-NH2
modifications: staple 1-4, 4-11; reading uncertain
B8: I-2216 (peptide)
peptide: Ac-[αAllylPro]D[tBuAla][B5(3)]D[Phe(3-COOH)]AAFL[PyrS2″][3Thi][34ClF]Q-NH2
modifications: staple 1-4, 4-11; reading uncertain
B9: I-2569 (peptide)
peptide: Ac-[PyrR]ED[tBuAla][B5(25)]D[Phe(3-COOH)]AAFL[PyrS2″][Phe(2-CF3)][Bta]Q-NH2
modifications: staple 1-5, 5-12 (inferred); not fully specified; printed as Ac-PyrR-Glu-Asp-Npg-B5-Asp-3COOHF-Ala-Ala-Phe-Leu-PyrS2-2F3MeF-BztA-Gln-NH2
B10: I-2572 (peptide)
peptide: Ac-P[dαMeGly(allyl)]D[tBuAla][B5(4)]D[Phe(3-COOH)]AAFL[PyrS2″][Phe(2-CF3)][Bta]Q-NH2
modifications: staple 5-12, 2-5; also: -CH=CH- in each staple reduced to -CH2-CH2-
B11: I-2559 (peptide)
peptide: Ac-[αAllylPro]D[tBuAla][B5(4)]D[Phe(3-COOH)][Aib]AF[Abu][PyrS2″][3Thi][Bta][(bismethoxyethylamine)GlnR]-NH2
modifications: staple 1-4, 4-11
B12: I-2554 (peptide)
peptide: Ac-[αAllylPro]D[tBuAla][B5(4)]D[Phe(3-COOH)][Aib]AF[Nle][PyrS2″][3Thi][Bta][(bismethoxyethylamine)GlnR]-NH2
modifications: staple 1-4, 4-11
B13: I-2568 (peptide)
peptide: Ac-[PyrR]AD[tBuAla][B5(25)]D[Phe(3-COOH)]AAFL[PyrS2″][Phe(2-CF3)][Bta]Q-NH2
modifications: staple 1-5, 5-12 (inferred); not fully specified; printed as Ac-PyrR-Ala-Asp-Npg-B5-Asp-3COOHF-Ala-Ala-Phe-Leu-PyrS2-2F3MeF-BztA-Gln-NH2
B14: I-2566 (peptide)
peptide: Ac-P[dαMeGly(allyl)]D[tBuAla][B5(25)]D[Phe(3-COOH)]AAFL[PyrS2″][Phe(2-CF3)][Bta]Q-NH2
modifications: staple 5-12, 2-5
B15: I-2567 (peptide)
peptide: Ac-P[R5]D[tBuAla][B5(25)]D[Phe(3-COOH)]AAFL[PyrS2″][Phe(2-CF3)][Bta]Q-NH2
modifications: staple 5-12, 2-5

full-length beta-Catenin (Uniprot ID P35222) (Homo sapiens (Human)), sequence (P35222 whole entry, one chain of several): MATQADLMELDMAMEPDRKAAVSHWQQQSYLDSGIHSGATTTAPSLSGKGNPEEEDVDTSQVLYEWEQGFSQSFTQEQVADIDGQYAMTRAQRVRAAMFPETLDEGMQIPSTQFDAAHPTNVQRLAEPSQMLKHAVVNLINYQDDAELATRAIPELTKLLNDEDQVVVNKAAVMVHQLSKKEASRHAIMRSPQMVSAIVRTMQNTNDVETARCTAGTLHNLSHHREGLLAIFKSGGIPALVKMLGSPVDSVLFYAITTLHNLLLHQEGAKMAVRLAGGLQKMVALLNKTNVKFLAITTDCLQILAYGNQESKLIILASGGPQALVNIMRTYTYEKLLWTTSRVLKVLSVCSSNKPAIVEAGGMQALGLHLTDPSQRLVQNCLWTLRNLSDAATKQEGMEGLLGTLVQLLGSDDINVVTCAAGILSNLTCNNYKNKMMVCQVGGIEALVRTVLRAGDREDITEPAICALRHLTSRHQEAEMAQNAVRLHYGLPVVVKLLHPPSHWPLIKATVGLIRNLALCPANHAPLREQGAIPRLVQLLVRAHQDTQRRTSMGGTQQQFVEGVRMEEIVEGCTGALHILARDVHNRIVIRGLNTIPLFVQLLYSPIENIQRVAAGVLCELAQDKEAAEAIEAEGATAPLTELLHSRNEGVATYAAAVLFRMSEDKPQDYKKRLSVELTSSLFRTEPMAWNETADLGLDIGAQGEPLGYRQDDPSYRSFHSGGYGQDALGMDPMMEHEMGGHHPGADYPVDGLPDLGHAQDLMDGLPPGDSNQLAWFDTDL

In the first test the target is Bcat-Halo (beta-catenin HaloTag construct expressed in HEK293 cells) (UniProt P35222). Put plainly: NanoBRET target engagement in HEK293 cells, absolute IC50; competitor TCF4-Luc. In general terms: Bioluminescence resonance energy transfer reports proximity on the nanometre scale.
Bcat-Halo (beta-catenin HaloTag construct expressed in HEK293 cells), sequence (P35222 whole entry): as the sequence (P35222 whole entry, one chain of several) above
Molecule B1 came in with an IC50 greater than 20000 nM.
Same read-out and setting: then B2, with 35500 nM.

The next test deals with Bcat-Halo (UniProt P35222). Put plainly: NanoBRET Abs IC50, Bcat-Halo/TCF4-Luc in HEK293 cells.
Bcat-Halo, sequence (P35222 whole entry): as the sequence (P35222 whole entry, one chain of several) above
In the case of B3, the IC50 was determined as 12900 nM.
Same read-out and setting: then B4, with 5100 nM; and B5, with 7100 nM.
Same read-out and setting: then B6, with 16300 nM.
Turning to B7, the concentration for half-maximal inhibition (IC50) is 2700 nM.
Still for that read-out and setting: with B8 the figure was 3400 nM.

The next test has as its target full-length beta-Catenin (Uniprot ID P35222) (Homo sapiens (Human)) (UniProt P35222). Put plainly: fluorescence polarization competition; competitor 5FAM-TCF4 10-53. Background: Polarisation of emitted light reports the rotation of a fluorescent probe.
In the case of B1, the half-inhibitory concentration (IC50) is 93 nM.
Still for that read-out and setting: with B2 the figure was 32 nM.

The target is the same in another test. As to the kind of experiment: fluorescence polarization competition; competitor 5FAM-TCF4(10-53) on full-length beta-catenin.
Take B9: the concentration for half-maximal inhibition (IC50) came to 1950 nM.
Same read-out and setting: then B10, with 67 nM; and B11, with 8 nM.
The same measure, in the same setting: then B12, with 8 nM; and B13, with 4770 nM; and B14, with 181 nM.
On the same count and under the same terms, with B15 the figure was 522 nM.

A further test shares this target. As to the kind of experiment: fluorescence polarization competition against 5FAM-TCF4 10-53.
The molecule B3 came in with an IC50 of 23 nM.
Still for that read-out and setting: then B4, with 34 nM.
On the same count and under the same terms, then B5, with 7 nM; and B6, with 12 nM; and B7, with 21 nM.
On the same count and under the same terms, then B8, with 7 nM.

The term IC50 denotes the concentration that inhibits the measured activity by half. Read a high IC50 as weaker potency in that assay.
